Measurements from US20140298544A1, “Engineered PEP carboxylase variants for improved plant productivity” (PIONEER HI BRED INTERNATIONAL INC, priority 2011, published 2014).
Positions count from the first letter of the chain named.

B1: 3D37-F3: maize C4 PEPC variant, 10 amino acid substitutions, SEQ ID NO: 10 (protein)
chain: MASTKAPGPGEKHHSIDAQLRQLVPGKVSEDDKLIEYDALLVDRFLNILQDLHGPSLREFVQECYEVSADYEGKGDTTKLGELGAKLTGLAPADAILVASSILHMLNLANLAEEVQIARRRRNSKLKKGGFADEGSATTESDIEETLKRLVSEVGKSPEEVFEALKNQTVDLVFTAHPTQSARRSLLQKNAGIRNCLTQLNAKDITDDDKQELDEALQREIQAAFRTDEIRRAQPTPQDEMRYGMSYIHETVWKGVPKFLRRVDTALKNIGINERLPYNVSLIRFSSWMGGDRDGNPRVTPEVTRDVCLLARMMAANLYIDQIEELMFELSMWRCNDELRVRAEELQSSAGSKVTKYYIEFWKQIPPNEPYRVILGHVRDKLYNTRERARHLLASGVSEISAESSFTSIEEFLEPLELCYKSLCDCGDKAIADGSLLDLLRQVFTFGLSLVKLDIRQESERHTDVIDAITTHLGIGSYREWSEDKRQEWLLSELKGKRPLLPPDLPQTDEIADVIGAFHVLAELPPDSFGPYIISMATAPSDVLAVELLQRECGIKQPLPVVPLFERLADLQSAPASVERLFSVDWYMDRIKGKQQVMVGYSDSGKDAGRLSAAWQLYRAQEEMAQVAKRYGVKLTLFHGRGGTVGRGGGPTHLAILSQPPDTINGSIRVTVQGEVIEFCFGEEHLCFQTLQRFTAATLEHGMHPPVSPKPEWRKLMDEMAVVATEEYRSVVVKEPRFVEYFRSATPETEYGRMNIGSRPAKRRPGGGITTLRAIPWIFSWTQTRFHLPVWLGVGAAFKWAIDKDVKNFQVLKEMYNEWPFFRVTLDLLEMVFAKGDPGIAGLYDELLVAEELKPFGKQLRDKYVETQQLLLQIAGHKDILEGDPYLKQGLVLRNPYITTLNVFQAYTLKRIRDPNFKVTPQPPLSKEFADENKPAGLVKLNPASEYPPGLEDTLILTMKGIAAGMQNTG
modifications: shuffled variant
B2: 3D5-D12: maize C4 PEPC variant, 7 amino acid substitutions, SEQ ID NO: 24 (protein)
chain: B1 chain with K86R, V115A, R119H, Q347H, S348A, I555V, K556R, W800F, Y886F
modifications: shuffled variant
B3: WT: wild-type maize C4 PEPC enzyme, SEQ ID NO: 26 (protein)
chain: B1 chain with R119H, G192R, Q347H, A350S, K495R, I555V, K556R, W800F, K807R, Y886F
modifications: Zea mays
B4: 3D10-G8: maize C4 PEPC variant, 14 amino acid substitutions, SEQ ID NO: 20 (protein)
chain: MASTKAPGPGEKHHSIDAQLCQLVPGKVSEDDKLIEYDALLVDRFLNILQDLHGPSLREFVQECYEVSADYEGKGDTTKLGELGAKLTGLAPADAILVASSILHMLNLANLAEEAQIALRRRNSKLKKGGFADEGSATTESDIEETLKRLVSEVGKSPEEVFEALKDQTVDLVFTAHPTQSARRSLLQKNARIRNCLTQLNAKDITDDDKQELDEALQREIQAAFRTDEIRRAQPTPQDEMRYGMSYIHETVWKGVPKFLRRVDTALKNIGINERLPYNVSLIRFSSWMGGDRDGNPRVTPEVTRDVCLLARMMAANLYIDQIEELMFELSMWRCNDELRVRAEELHASAGSKVTKYYIEFWKQIPPNEPYRVILGHVRDKLYNTRERARHLLASGVSEISAESSFTSIEEFLEPLELCYKSLCDCGDKAIADGSLLDLLRQVFTFGLSLVKLDIRQESERHTDVIDAITTYLGIGSYREWSEDKRQEWLLSELKGKRPLLPPDLPQTDEIADVIGAFHVLAELPPDSFGPYIISMATAPSDVLAVELLQRECGIKQPLPVVPLFERLADLQSAPASVERLFSVDWYMDRIKGKQQVMVGYSDSGKDAGRLSAAWQLYKAQEEMAQVAKRYGVKLTLFHGRGGTVGRGGGPTHLAILSQPPDTINGSIRVTVQGEVIEFCFGEEHLCFQTLQRFTAATLEHGMHPPVSPKPEWRKLMDEMAVVATEEYRSVVVKEPRFVEYFRSATPETEYGRMNIGSRPAKRRPGGGITTLRAIPWIFSWTQTRFHLPVWLGVGAAFKWAIDKDVKNFQVLKEMYNEWPFFRVTLDLLEMVFAKGDPGIAGLYDELLVAEELKPFGKQLRDKYVETQQLLLQIAGHKDILEGDPFLKRGLVLRNPYITTLNVFQAYTLKRIRDPNFKVTPQPPLSKEFADENKPAGLVKLNPASEYPPGLEDTLILTMKGIAAGMQNTG
modifications: shuffled variant

tested on: maize C4 PEPC; assay: Kinetic and regulatory properties of PEPC variants (expressed in E. coli); format: biochemical; details: not given
Text: (§1) Libraries of modified PEPC polynucleotides were generated using recursive sequence recombination methods (Stemmer, Proc. Natl. Acad. Sci USA 91:10747-10751; Ness, et. al., Nature Biotechnology 20:1251-1255), also known as gene shuffling methods. These libraries incorporated diversity from related PEPC enzymes and also incorporated other designed and random changes. The starting polynucleotide sequence in which the diversity was incorporated was the maize C4 PEPC as shown in SEQ ID NO: 25. Each PEPC variant was expressed in E. coli as a thioredoxin fusion using the pET 32 expression vector (Novagen) with the E. coli expression strain Rosetta gami 2 BL21 DE3 pLYS S. Cultures expressing the variants were grown in 96-well culture blocks, lysed, and then PEPC activity and PEPC protein abundance were determined. The variants with high specific activity were subjected to further rounds of shuffling, for a total of 3 rounds. Examples of nucleotide and amino acid sequences of PEPC variants obtained with this method are SEQ ID NO: 4 to 24.
(§2) Detailed kinetic studies of PEPC variants were done in accordance with methods known in the art. See, for example, Tovar-Mendez et al. (2000) Plant Physiol. 123: 149-160; Tover-Mendez et al. (1998) Biochem. J. 332: 633-642.
(§3) PEPC variants had several improved properties in comparison with wild type PEPC, including greater affinity (lower S0.5 values) with respect to the bicarbonate substrate, greater Kcat/S0.5 values with the bicarbonate or PEP substrates, greater activation (lower A0.5 values) with […] or glycine as activators and greater Ki values with malate as inhibitor.

B1 was tested, and the “kcat/S0.5 Fold incr.” value was 70.1 Fold incr.

same assay, conditions: PEP substrate, no activators

Going from B1 to B2, the “PEP, no activators kcat/S0.5” value rises from 71500 M⁻¹ s⁻¹ to 151000 M⁻¹ s⁻¹ (2.1-fold).

Compared with B3, B4 is 2.5-fold higher in “PEP, no activators kcat/S0.5” value: 34100 M⁻¹ s⁻¹ for the first, 86200 M⁻¹ s⁻¹ for the second.

same assay, conditions: PEP substrate, no activators; relative to wild type

Compared with B1, B2 is higher in “PEP, no activators kcat/S0.5 % wt” value: 210 % wt for the first, 442 % wt for the second.

Going from B3 to B4, the “PEP, no activators kcat/S0.5 % wt” value rises from 100 % wt to 253 % wt.

same assay, conditions: PEP substrate, with activators

B1 and B2 are within 1.5-fold of each other in “PEP, with activators kcat/S0.5” value: 5.01e+06 M⁻¹ s⁻¹ for the first, 5.551e+06 M⁻¹ s⁻¹ for the second.

First: B3
Second: B4
The “PEP, with activators kcat/S0.5” value of the first is 1.9-fold lower: 2.443e+06 M⁻¹ s⁻¹ for the first, 4.613e+06 M⁻¹ s⁻¹ for the second.

same assay, conditions: PEP substrate, with activators vs no activators

First: B2
Second: B3
The “kcat/S0.5 Fold incr.” value of the first is lower: 36.9 Fold incr for the first, 71.6 Fold incr for the second.

B4 was tested, and the “kcat/S0.5 Fold incr.” value was 53.5 Fold incr.

same assay, conditions: PEP substrate, with activators; relative to wild type

Going from B1 to B2, the “PEP, with activators kcat/S0.5 % wt” value rises from 205 % wt to 227 % wt.

Going from B3 to B4, the “PEP, with activators kcat/S0.5 % wt” value rises from 100 % wt to 189 % wt.

same assay, conditions: activator Glc-6-P

First: B1
Second: B2
The “Glc-6-P Vmax Fold incr” value of the first is higher: 7.2 Fold incr for the first, 4.3 Fold incr for the second.

Compared with B3, B4 is lower in “Glc-6-P Vmax Fold incr” value: 23.1 Fold incr for the first, 2.5 Fold incr for the second.

same assay, conditions: activator Glc-6-P; read-out: Glc-6-P A0.5

Compared with B1, B2 is 2.4-fold lower in EC50: 4460 µM for the first, 1880 µM for the second. The second is the more potent here.

Going from B3 to B4, the EC50 falls from 6800 µM to 920 µM (7.4-fold). The second is the more potent here.

same assay, conditions: activator Glc-6-P; relative to wild type

Compared with B1, B2 is lower in “Glc-6-P A0.5 % wt” value: 66 % wt for the first, 28 % wt for the second.

First: B3
Second: B4
The “Glc-6-P A0.5 % wt” value of the first is higher: 100 % wt for the first, 14 % wt for the second.

same assay, conditions: activator glycine

First: B1
Second: B2
The “Glycine Vmax Fold incr” value of the first is higher: 5.8 Fold incr for the first, 4.1 Fold incr for the second.

First: B3
Second: B4
The “Glycine Vmax Fold incr” value of the first is higher: 15.9 Fold incr for the first, 3.6 Fold incr for the second.

same assay, conditions: activator glycine; read-out: Glycine A0.5

Going from B1 to B2, the EC50 falls from 930 µM to 320 µM (2.9-fold). The second is the more potent here.

First: B3
Second: B4
The EC50 of the first is 16-fold higher: 3620 µM for the first, 230 µM for the second. The second is the more potent here.

same assay, conditions: activator glycine; relative to wild type

Going from B1 to B2, the “Glycine A0.5 % wt” value falls from 26 % wt to 9 % wt.

Going from B3 to B4, the “Glycine A0.5 % wt” value falls from 100 % wt to 6 % wt.

same assay, conditions: bicarbonate substrate

Compared with B1, B2 is 1.7-fold higher in “HCO3 S0.5” value: 0.0167 mM for the first, 0.0277 mM for the second.

B3 and B4 are within 1.5-fold of each other in “HCO3 S0.5” value: 0.0282 mM for the first, 0.0255 mM for the second.

B1 and B2 are within 1.5-fold of each other in “HCO3 kcat/S0.5” value: 3.512e+06 M⁻¹ s⁻¹ for the first, 3.454e+06 M⁻¹ s⁻¹ for the second.

Going from B3 to B4, the “HCO3 kcat/S0.5” value rises from 2.122e+06 M⁻¹ s⁻¹ to 3.2e+06 M⁻¹ s⁻¹ (1.5-fold).

same assay, conditions: bicarbonate substrate; relative to wild type

First: B1
Second: B2
The “HCO3 kcat/S0.5 % wt” value of the first is higher: 166 % wt for the first, 163 % wt for the second.

Going from B3 to B4, the “HCO3 kcat/S0.5 % wt” value rises from 100 % wt to 151 % wt.

same assay, conditions: inhibitor malate

Compared with B1, B2 is 1.7-fold higher in Ki: 2400 µM for the first, 4000 µM for the second. The first binds more tightly here.

Going from B3 to B4, the Ki rises from 400 µM to 5000 µM (12-fold).

same assay, conditions: inhibitor malate; relative to wild type

First: B1
Second: B2
The “Malate Ki % wt” value of the first is lower: 600 % wt for the first, 1000 % wt for the second.

Going from B3 to B4, the “Malate Ki % wt” value rises from 100 % wt to 1250 % wt.

same assay, conditions: relative to wild type

For B1, the “Ki for malate, in words” value was “increased Ki”.

In the case of B1, the “activation by glucose-6-phosphate, in words” value is reported as “increased activation”.

For B1, the “activation by glycine, in words” value was “increased activation”.

target: T1, maize C4 PEPC (Zea mays, UniProt P04711, A239D/A736P/F800W/F886Y/H119R/H347Q/P482S/R192G/R495K/R556K/R807K/S350A/V555I); assay: as above; format: biochemical; details: relative to wild type
T1 construct: thioredoxin; made in house; host or cells: E. coli Rosetta gami 2 BL21 DE3 pLYS S
Text: as §1, §2, §3

With B1 the “affinity (S0.5 value) for bicarbonate, in words” value was “higher affinity”.
